{"source": "paper PMC8295636", "target": "p53", "assay": "two-hybrid", "data": [{"substance": "SV40T (natural protein)", "values": [{"measurement": "fold increase of reporter expression over negative controls", "value": "> 130", "unit": "times"}]}]}
